From the supplement of paper PMC12764529
± gives the half width of the 95% confidence interval.

Experiments:
[1] = folding stability dG unfold from trypsin proteolysis; higher = more stable
Procedure, shortened: (§1)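 Mini-proteins designed to be under 80 residues and free of cysteine were carried in a PA-tagged cDNA display construct and digested with trypsin and with chymotrypsin. Each protease was applied at 11 threefold-diluted concentrations, alongside a no-protease condition, before sequencing. K50 came from Bayesian fitting of the sequencing counts, and unfolding free energy was obtained by comparing it with a sequence-predicted unfolded-state K50 and a shared folded-state K50, for each protease separately or for both together. Designs were retained only if their AlphaFold2 dimer inter-PAE exceeded 15.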

[2] = folding stability dG unfold from chymotrypsin proteolysis; higher = more stable
Procedure, shortened: as §1

[3] = folding stability dG unfold (combined trypsin and chymotrypsin); higher = more stable
Procedure, shortened: as §1

Sequence	folding stability dG unfold [1] [kcal/mol]	folding stability dG unfold [2] [kcal/mol]	folding stability dG unfold [3] [kcal/mol]
SAGGSAMPKIEVTVYFPENGTETVEIHFPPGKVITGPLSLLEEIIESGIPKENISISYKTLSPSLTSAGGSA [r15_955_JUSTAS]	1.64 ± 0.03	1.05 ± 0.061	1.37 ± 0.041
SAGGSAMPKKVVEGPVPPEDVEARIAELLEEDPNLTYVKFTYPELGSEVVIDFENGKVTKIERLLESAGGSA [r15_166_JUSTAS]	-0.217 ± 0.1	0.211 ± 0.1	0.108 ± 0.052
SAGGSAMPKYVISGIYRLPDKTLFFDYVIPPGLAENPERVKELAEEIRELLEQLGYPAVDFKIEPVSAGGSA [r15_781_TrMRF]	1.65 ± 0.043	2.09 ± 0.065	1.99 ± 0.098
SAGGSAMPPVKVEVVEAEPFVVEGEGGLYLVRPFLVRAPDLPRLFLVVLVEDPGEPDVLAEVFDLDSAGGSA [r15_528_TrMRF]	1.84 ± 0.041	2.55 ± 0.045	2.37 ± 0.099
SAGGSAMPVKTSTTTEGDTVTTYTLEPVGGSTTLTTTTTTVTKTNSGTTTTSTTTTTPLPTASGATSAGGSA [r15_725_JUSTAS]	-0.0787 ± 0.022	-0.108 ± 0.074	-0.014 ± 0.074
SAGGSAMPVVEIEIEVSEEEAEELVKKLKELFPEVEEVEVERTEDGLRIRVRVKLPPLTEEELKAKSAGGSA [r15_166_TrROS_Hall]	1.17 ± 0.026	0.987 ± 0.042	1.04 ± 0.054
SAGGSAMRIKDVNPDNGYFRIEPPDNGKPIYELNVEAMKKAQENGDIPPWVRELLNHEPGYRIEPVSAGGSA [r15_359_TrROS]	-0.979 ± 0.49	-0.291 ± 0.21	-0.327 ± 0.15
SAGGSAMSEEALAEAERLVAERRAALEAAGVPVTVERVEVTVTVDTEVPTTNITVDLDVRLPDAPESAGGSA [r2_94_JUSTAS]	-0.0861 ± 0.034	1.38 ± 0.024	0.999 ± 0.027
SAGGSAMTLEFKILFPNKTKEEAIKAIEEIPEEIKKNIKKIEILKIDPVGDEVIATLKIEVDPEFLSAGGSA [r15_244_TrMRF]	0.723 ± 0.18	1.86 ± 0.24	1.37 ± 0.29
SAGGSAMTPEEVREKAEEIAETLAAEAREAGYEVEVKAKVEGLPEKYARVTVELNGARVEVLIPLDSAGGSA [r15_432_TrMRF]	0.453 ± 0.059	-0.311 ± 0.18	0.125 ± 0.09
SAGGSAMTPVTIELPFEVEADDPEEAIKKAKELAEKLGLKPVEIKEIEVEPGNPKKVTVLMKATILSAGGSA [r15_183_JUSTAS]	1.74 ± 0.066	1.36 ± 0.049	1.6 ± 0.071
SAGGSAMTVTTTTSVDPKTGIITTTVSVNGTPVFTGTSIVAPGGEVAETFGTYTYDPETGTVTVTGSAGGSA [r15_770_JUSTAS]	1.7 ± 0.067	1.17 ± 0.049	1.43 ± 0.086
SAGGSAMVVRIEVDGKTIEIPAGASLEELKALLAENPGARFRIEVVEPPPPELSEEERKALEEARKSAGGSA [r15_36_TrROS_Hall]	1.35 ± 0.019	1.32 ± 0.077	1.37 ± 0.1
SAGGSAMVVRITTKDGKKIEITVKSVEELLEALKELGVEEVKLEKLPDGKELKLTVTLKDGKIEILSAGGSA [r15_632_TrROS_Hall]	3.14 ± 0.087	2.8 ± 0.077	2.92 ± 0.054
SAGGSAMYEVRIKIKKDGKEVEIELSLEELEELLESPELREELEIVEIEVRPLPPEELSEEELKALSAGGSA [r15_460_TrROS_Hall]	1.18 ± 0.028	0.836 ± 0.045	1.06 ± 0.058
SAGGSANDKDGQKKKQIKPIKIELPIPPGMEIEEINPGNGMIMIRWPENGWTWMFSLDDGKIFVMDSAGGSA [r15_452_TrROS]	1.54 ± 0.058	2.13 ± 0.19	1.86 ± 0.22

Sequence	folding stability dG unfold [1] [kcal/mol]	folding stability dG unfold [2] [kcal/mol]	folding stability dG unfold [3] [kcal/mol]
SAGGSANEILEKLGYPEENIVERKKVFKLPNGTELYEYVIPKTENGVTATILVEKTPKGVKIKVLPSAGGSA [r15_813_JUSTAS]	-0.642 ± 0.44	0.414 ± 0.25	0.318 ± 0.22
SAGGSANLAETPPVTTTETIEIKVPDPGKPLPITEEDVKKKYEGKNTKVEISVEGDKVIITITTKESAGGSA [r15_377_JUSTAS]	0.407 ± 0.054	0.871 ± 0.094	0.68 ± 0.24
SAGGSANPKPKIEIDKIYRMPDGQVHIPIEMERYDDDGQKETYPMDVTFNVPEGKPLTPNAIKDLISAGGSA [r15_836_TrROS]	-0.645 ± 0.064	-0.924 ± 0.24	-0.693 ± 0.15
SAGGSANTTYIELPTNGMSDEEVKELAEELAKKLGVKLEIKPLPGEGYWVVTFTLPDSTSTIVIPGSAGGSA [r15_168_JUSTAS]	2.55 ± 0.11	2.37 ± 0.038	2.41 ± 0.11
SAGGSANWRPIEIELMIGIKSKEQAKEWAEEIADNFPGIKDVEVEEFPDPDGHVMVAVDVKFYVPESAGGSA [r15_726_TrROS]	0.755 ± 0.057	0.999 ± 0.031	0.969 ± 0.075
SAGGSANWVKVEVKIPGGLKIEVWVPPGMSKEENQEKAQEMADEMAQMLRQMRENRKEGKPPTIDFSAGGSA [r15_704_TrROS]	0.819 ± 0.08	2.02 ± 0.065	1.66 ± 0.1
SAGGSAPAEKVAQTLLDLGFTEVRVEEDPETDLVTVEVIDPDGTRLEIRVDPKDPRIVEIRPRSLKSAGGSA [r15_648_TrMRF]	-0.351 ± 0.14	-0.0972 ± 0.15	-0.154 ± 0.16
SAGGSAPETLTIKVKNADGSTQTITLPAGATATSIEFNEDTGELTIHLEETGETITLPADEITEITSAGGSA [r15_133_TrROS_Hall]	1.39 ± 0.12	1.33 ± 0.026	1.4 ± 0.11
SAGGSAPEVKIVDVEEVDGEVKIKVEAPPGARLLIFNRATGKWEEVEVKPGDTITLPPGALVLVEPSAGGSA [r15_418_TrROS_Hall]	1.77 ± 0.025	3.22 ± 0.035	2.88 ± 0.1
SAGGSAPFKAELVSYDPETGVATFKLTLPDGSEVTVVATLDPDGVPHVKAYFPDGSVYDIEEILASSAGGSA [r15_832_TrMRF]	2.28 ± 0.076	3.893 ± 0.022	3.59 ± 0.1
SAGGSAPFKIAEIESVEYDPNEGRPTIRITIEHDGRPVEIWVPPGGIQIFNMGDGEPIKEIPLDEISAGGSA [r15_85_TrROS]	0.182 ± 0.25	0.434 ± 0.48	0.0268 ± 0.26
SAGGSAPGVITFMLPLDDIPPDPDGKWTHNEIKDHIRPFIQEAFGKDDIEIDVSPHPNGWVRITIRSAGGSA [r15_562_TrROS]	2.41 ± 0.074	2.76 ± 0.056	2.69 ± 0.079
SAGGSAPGVTLVSSTSSTSTLPDGTTKSTTTTTYKSPTGTYTTTTTTTVDTSKGTTTPTTTVTPVSSAGGSA [r2_185_JUSTAS]	0.645 ± 0.064	0.61 ± 0.16	0.692 ± 0.14
SAGGSAPIKIKTADGKTITVNAKDLSLELLKKADKVIITKPDGKKIELPAGAKIKKGDTVTIKIVKSAGGSA [r15_733_TrROS_Hall]	0.153 ± 0.11	-0.437 ± 0.21	-0.336 ± 0.33
SAGGSAPKNVTIEFPIMAKVPDPKWAIDEARELARKQGFENTEIENIHVNPGDPNYVMIDVKMTIPSAGGSA [r15_183_TrROS]	0.249 ± 0.11	0.278 ± 0.17	0.326 ± 0.24
